Test results from US20030124508A1, “Method for testing the hormonal effect of substances” (priority 2001, published 2003).

Molecular target: T1, androgen receptor (Homo sapiens, UniProt P10275)
T1 construct: expressed in transfected cells; host or cells: SH-SY5Y
T1 sequence (P10275 1-920): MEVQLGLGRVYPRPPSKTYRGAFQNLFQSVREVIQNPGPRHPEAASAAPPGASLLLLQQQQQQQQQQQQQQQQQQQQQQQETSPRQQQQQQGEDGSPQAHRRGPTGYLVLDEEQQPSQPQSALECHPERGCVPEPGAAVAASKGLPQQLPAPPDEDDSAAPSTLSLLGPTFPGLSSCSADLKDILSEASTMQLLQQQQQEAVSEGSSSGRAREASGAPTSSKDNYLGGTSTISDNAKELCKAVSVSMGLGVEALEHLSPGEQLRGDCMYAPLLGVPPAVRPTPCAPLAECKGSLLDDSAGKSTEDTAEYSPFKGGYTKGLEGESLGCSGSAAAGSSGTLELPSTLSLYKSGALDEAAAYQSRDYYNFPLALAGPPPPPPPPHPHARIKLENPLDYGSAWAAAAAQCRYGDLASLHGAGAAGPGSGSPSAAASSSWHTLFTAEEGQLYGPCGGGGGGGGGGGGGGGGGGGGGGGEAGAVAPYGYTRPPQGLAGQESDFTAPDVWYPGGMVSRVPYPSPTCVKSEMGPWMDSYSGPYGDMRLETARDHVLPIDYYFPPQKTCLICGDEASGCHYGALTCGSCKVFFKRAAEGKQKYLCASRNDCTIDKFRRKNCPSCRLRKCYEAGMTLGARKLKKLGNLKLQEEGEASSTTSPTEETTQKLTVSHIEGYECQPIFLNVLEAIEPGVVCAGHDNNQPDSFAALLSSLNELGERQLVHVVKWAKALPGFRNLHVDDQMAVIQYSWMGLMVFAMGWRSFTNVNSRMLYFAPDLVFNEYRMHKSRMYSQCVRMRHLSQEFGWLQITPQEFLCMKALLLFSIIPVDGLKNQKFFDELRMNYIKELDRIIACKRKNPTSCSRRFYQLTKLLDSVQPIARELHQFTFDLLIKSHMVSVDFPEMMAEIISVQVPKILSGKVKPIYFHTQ
Assay: Co-activation of the androgen receptor signal (MMTV-luciferase reporter) in transfected SH-SY5Y cells
Type: cell-based
Conditions: SH-SY5Y cells transfected with 1 μg co-activator in CMX, MMTV-luciferase and pSG5AR; DHT for 24 hours; especially at low androgen concentrations of 10^−12-10^−10 M; vs CMX control plasmid
Method: The ARAP11-cDNA which codes for the ARAP11 fragment of amino acids 813-1,390, obtained by PCR, was cloned in the standard manner into the vector CMX and transfected with pSG5-AR and MMTV-luciferase in SH-SY5Y cells, also in the standard manner.
After 24 hours, the cells were treated with […] (DHT) as the androgen in the indicated concentrations. The transfected cells were harvested after another 24 hours, and the activity of the reporter gene luciferase was measured. In addition, the total quantity of cell protein was determined for the sake of normalization. One experiment and four measurements were conducted per transfection batch and substance concentration. The error range is given as the SD. The values of the corresponding controls without DHT were subtracted from all signals. The activity is expressed in relative units.

B1: ARAP11-cDNA: cDNA in vector CMX coding for amino acids 813-1,390 of ARAP11, co-activator for the human androgen receptor (protein)
chain: VIHALEKFTVYTLDIPVLFGVSTTSPEETCAQVIREAKRTAPSIVYVPHIHVWWEIVGPTLKATFTTLLQNIPSFAPVLLLATSDKPHSALPEEVQELFIRDYGEIFNVQLPDKEERTKFFEDLILKQAAKPPISKKKAVLQALEVLPVAPPPEPRSLTAEEVKRLEEQEEDTFRELRIFLRNVTHRLAIDKRFRVFTKPVDPDEVPDYVTVIKQPMDLSSVISKIDLHKYLTVKDYLRDIDLICSNALEYNPDRDPGDRLIRHRACALRDTAYAIIKEELDEDFEQLCEEIQESRKKRGCSSSKYAPSYYHVMPKQNSTLVGDKRSDPEQNEKLKTPSTPVACSTPAQLKRKIRKKSNWYLGTIKKRRKISQAKDDSQNAIDHKIESDTEETQDTSVDHNETGNTGESSVEENEKQQNASESKLELRNNSNTCNIENELEDSRKTTACTELRDKIACNGDASSSQIIHISDENEGKEMCVLRMTRARRSQVEQQQLITVEKALAILSQPTPSLVVDHERLKNLLKTVVKKSQNYNIFQLENLYAVISQCIYRHRKDHDKTSLIQKMEQEVENFSCSR
modifications: fetalbrain; ARAP11 fragment from amino acid residues 813- 1390
For B1, the “co-activation of the AR signal activity (luciferase reporter activity)” value was “strong co-activation of the AR signal activity”.
